Publication PMC4681132 (Nature, 2015)

B1: RNA polymerase III subunit C11 (natural protein, S. cerevisiae)
chain: MLSFCPSCNNMLLITSGDSGVYTLACRSCPYEFPIEGIEIYDRKKLPRKEVDDVLGGGWDNVDQTKTQCPNYDTCGGESAYFFQLQIRSADEPMTTFYKCVNCGHRWKEN
B2: RNA polymerase III subunit C37 (natural protein, S. cerevisiae)
chain: MSIDNKLFVTEEDEEDRTQDRADVEDESNDIDMIADENGTNSAIANEQEEKSEEVKAEDDTGEEEEDDPVIEEFPLKISGEEESLHVFQYANRPRLVGRKPAEHPFISAARYKPKSHLWEIDIPLDEQAFYNKDKAESEWNGVNVQTLKGVGVENNGQYAAFVKDMQVYLVPIERVAQLKPFFKYIDDANVTRKQEDARRNPNPSSQRAQVVTMSVKSVNDPSQNRLTGSLLAHKVADEEANIELTWAEGTFEQFKDTIVKEAEDKTLVALEKQEDYIDNLV
B3: RNA polymerase III stalk subunit C17 (natural protein, S. cerevisiae)
chain: MKVLEERNAFLSDYEVLKFLTDLEKKHLWDQKSLAALKKSRSKGKQNRPYNHPELQGITRNVVNYLSINKNFINQEDEGEERESSGAKDAEKSGISKMSDESFAELMTKLNSFKLFKAEKLQIVNQLPANMVHLYSIVEECDARFDEKTIEEMLEIISGYA

What was measured:
Assay in all cases: cryo-EM structure
[1] = target: T1, RNA polymerase III subunit C160 (S. cerevisiae, UniProt P04051 1-1460)
T1 sequence: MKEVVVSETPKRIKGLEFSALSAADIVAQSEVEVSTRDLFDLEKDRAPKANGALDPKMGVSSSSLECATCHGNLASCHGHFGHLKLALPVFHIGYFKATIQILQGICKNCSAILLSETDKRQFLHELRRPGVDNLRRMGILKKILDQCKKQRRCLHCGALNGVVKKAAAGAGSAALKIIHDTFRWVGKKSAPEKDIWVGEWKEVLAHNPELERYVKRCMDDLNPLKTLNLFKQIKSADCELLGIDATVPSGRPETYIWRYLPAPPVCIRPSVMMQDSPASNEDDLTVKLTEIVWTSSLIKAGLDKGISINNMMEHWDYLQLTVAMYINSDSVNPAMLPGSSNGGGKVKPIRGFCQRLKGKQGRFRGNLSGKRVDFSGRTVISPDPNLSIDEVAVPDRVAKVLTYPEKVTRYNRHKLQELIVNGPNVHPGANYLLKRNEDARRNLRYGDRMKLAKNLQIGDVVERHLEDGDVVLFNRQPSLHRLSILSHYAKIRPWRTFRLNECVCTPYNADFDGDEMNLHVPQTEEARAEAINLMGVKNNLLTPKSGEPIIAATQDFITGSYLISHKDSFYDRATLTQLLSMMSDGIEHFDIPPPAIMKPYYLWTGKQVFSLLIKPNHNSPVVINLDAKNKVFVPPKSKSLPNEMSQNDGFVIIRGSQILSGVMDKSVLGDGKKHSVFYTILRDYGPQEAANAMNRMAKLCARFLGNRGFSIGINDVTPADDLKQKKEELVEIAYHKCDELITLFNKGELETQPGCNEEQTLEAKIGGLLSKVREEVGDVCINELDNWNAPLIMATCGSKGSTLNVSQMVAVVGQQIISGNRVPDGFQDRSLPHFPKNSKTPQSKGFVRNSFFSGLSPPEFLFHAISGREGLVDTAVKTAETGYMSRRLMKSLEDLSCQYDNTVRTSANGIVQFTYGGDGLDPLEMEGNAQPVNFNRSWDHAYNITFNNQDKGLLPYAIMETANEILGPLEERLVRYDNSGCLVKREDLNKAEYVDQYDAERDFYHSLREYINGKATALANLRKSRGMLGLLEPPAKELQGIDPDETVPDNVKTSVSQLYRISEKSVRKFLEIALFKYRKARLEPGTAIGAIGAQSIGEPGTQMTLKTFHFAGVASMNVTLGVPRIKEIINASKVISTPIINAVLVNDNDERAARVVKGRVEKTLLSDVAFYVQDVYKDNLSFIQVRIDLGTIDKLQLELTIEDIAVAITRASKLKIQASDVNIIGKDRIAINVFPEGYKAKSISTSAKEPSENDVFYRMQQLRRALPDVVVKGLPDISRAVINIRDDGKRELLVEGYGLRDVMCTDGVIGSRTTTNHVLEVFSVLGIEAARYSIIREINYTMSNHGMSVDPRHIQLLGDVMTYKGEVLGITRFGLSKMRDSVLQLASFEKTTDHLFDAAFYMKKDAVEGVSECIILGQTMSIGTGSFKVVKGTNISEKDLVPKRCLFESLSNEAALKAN

[2] = target: B2
[3] = target: T2, RNA polymerase III subunit C128 (S. cerevisiae, UniProt P22276 1-1149)
T2 sequence: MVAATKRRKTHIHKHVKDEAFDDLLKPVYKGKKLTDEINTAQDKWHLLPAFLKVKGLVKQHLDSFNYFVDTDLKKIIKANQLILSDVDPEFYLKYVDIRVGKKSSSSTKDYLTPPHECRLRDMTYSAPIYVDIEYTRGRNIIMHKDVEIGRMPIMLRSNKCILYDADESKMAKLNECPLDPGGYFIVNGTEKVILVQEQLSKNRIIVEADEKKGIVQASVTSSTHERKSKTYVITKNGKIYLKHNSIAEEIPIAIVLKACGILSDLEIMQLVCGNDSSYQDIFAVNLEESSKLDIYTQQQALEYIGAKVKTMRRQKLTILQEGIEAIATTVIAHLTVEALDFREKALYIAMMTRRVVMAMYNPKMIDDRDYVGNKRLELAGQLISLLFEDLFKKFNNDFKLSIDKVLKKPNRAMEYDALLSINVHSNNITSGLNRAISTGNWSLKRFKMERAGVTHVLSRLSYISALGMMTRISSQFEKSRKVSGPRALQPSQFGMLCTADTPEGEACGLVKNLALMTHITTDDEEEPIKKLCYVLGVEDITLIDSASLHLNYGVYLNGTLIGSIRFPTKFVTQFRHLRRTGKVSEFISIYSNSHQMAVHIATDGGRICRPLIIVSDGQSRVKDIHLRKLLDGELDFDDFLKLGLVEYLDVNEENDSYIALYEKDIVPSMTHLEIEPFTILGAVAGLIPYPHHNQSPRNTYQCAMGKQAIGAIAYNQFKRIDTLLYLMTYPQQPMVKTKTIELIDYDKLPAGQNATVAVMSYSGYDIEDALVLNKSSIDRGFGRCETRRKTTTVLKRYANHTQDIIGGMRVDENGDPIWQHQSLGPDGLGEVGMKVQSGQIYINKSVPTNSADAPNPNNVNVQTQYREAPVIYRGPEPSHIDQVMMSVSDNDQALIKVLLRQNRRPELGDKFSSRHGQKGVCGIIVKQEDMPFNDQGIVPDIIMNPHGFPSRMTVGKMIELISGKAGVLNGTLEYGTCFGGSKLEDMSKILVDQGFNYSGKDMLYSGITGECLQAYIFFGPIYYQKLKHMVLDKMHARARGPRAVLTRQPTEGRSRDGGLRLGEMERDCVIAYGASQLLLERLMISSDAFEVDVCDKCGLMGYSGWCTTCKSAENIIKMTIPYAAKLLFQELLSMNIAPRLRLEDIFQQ

[4] = target: T3, RNA polymerase III subunit C53 (S. cerevisiae, UniProt P25441 1-422)
T3 sequence: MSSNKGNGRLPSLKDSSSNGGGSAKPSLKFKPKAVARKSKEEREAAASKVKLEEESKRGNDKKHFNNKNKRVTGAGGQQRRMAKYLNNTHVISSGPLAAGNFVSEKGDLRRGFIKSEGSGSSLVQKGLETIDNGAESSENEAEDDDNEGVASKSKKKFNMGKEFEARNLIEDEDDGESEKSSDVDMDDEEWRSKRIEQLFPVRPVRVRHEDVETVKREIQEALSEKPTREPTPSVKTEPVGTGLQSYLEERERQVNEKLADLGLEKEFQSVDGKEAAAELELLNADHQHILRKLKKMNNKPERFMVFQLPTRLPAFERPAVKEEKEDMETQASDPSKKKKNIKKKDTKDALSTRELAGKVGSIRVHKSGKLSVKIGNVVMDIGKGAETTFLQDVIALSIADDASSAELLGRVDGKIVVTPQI

[5] = target: T4, RNA polymerase III stalk subunit C25 (S. cerevisiae, UniProt P35718 1-212)
T4 sequence: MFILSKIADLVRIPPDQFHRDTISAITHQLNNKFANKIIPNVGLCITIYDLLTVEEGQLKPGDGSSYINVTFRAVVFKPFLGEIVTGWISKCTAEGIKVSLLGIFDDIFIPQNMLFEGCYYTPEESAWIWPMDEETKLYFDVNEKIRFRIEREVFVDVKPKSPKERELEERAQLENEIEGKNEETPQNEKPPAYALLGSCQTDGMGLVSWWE

Row | Binder | binding result [1] | binding result [2] | binding result [3] | binding result [4] | binding result [5]
1 | B1 | binds | binds | binds | – | –
2 | B2 | – | – | binds | binds | –
3 | B3 | binds | – | – | – | binds
